How the values were obtained:
HMGB2 = biological target: T1, HMGB2 (Homo sapiens, UniProt P26583); experiment: Salt fractionation of nuclei, western blot for HMGB2; assay type: cell-based; conditions: upon protein VII expression
T1 construct: endogenous in cells; host or cells: THP-1 (PMA-differentiated)
T1 sequence (P26583 1-209): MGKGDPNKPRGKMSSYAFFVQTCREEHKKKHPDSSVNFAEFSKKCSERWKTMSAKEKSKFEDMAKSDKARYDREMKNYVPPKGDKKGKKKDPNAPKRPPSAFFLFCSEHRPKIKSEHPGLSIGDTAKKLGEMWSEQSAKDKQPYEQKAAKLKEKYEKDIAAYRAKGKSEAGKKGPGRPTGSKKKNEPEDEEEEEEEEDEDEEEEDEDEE
Method: Salt fractionation of nuclei was adapted from established protocols (Zaret, K. (2005) Micrococcal nuclease analysis of chromatin structure. Curr. Protoc. Mol., Biol. Chapter 21, Unit 21.1; Teves et al. (2012) Methods Mol. Biol., 833:421-432). Briefly, 2-4×10^7 cells were collected and resuspended in 2 mL of ice-cold buffer I (0.32 M sucrose, 60 mM KCl, 15 mM NaCl, 5 mM MgCl2, 0.1 mM EGTA, 15 mM Tris, pH 7.5, 0.5 mM DTT, 0.1 mM PMSF and protease inhibitor cocktail from Roche). To dissolve the plasma membrane, 2 mL ice-cold buffer I supplemented with 0.1% IGEPAL were added and samples were incubated on ice for 10 minutes. The 4 mL of nuclei was layered on 8 mL of ice-cold buffer II (1.2 M sucrose, 60 mM KCl, 15 mM NaCl, 5 mM MgCl2, 0.1 mM EGTA, 15 mM Tris, pH 7.5, 0.5 mM DTT, 0.1 mM PMSF and protease inhibitor cocktail from Roche) and centrifuged for 20 minutes at 10,000×g and 4° C. The pelleted nuclei were resuspended in 400 μL buffer III (10 mM Tris pH 7.4, 2 mM MgCl2, 0.1 mM PMSF) supplemented with 5 mM CaCl2 and the DNA was digested to mononucleosomes by addition of 1 unit of MNase (Sigma-Aldrich, N3755). […] The final pellet was resuspended in 400 μL ddH2O and all samples were analyzed together by western blot. An aliquot of each supernatant was set aside for DNA purification using a PCR purification kit (Qiagen) and analyzed by agarose gel electrophoresis. […]

[1] = tested on: HMGB1 domains (A box, B box, acidic tail); experiment: Immunofluorescence of HMGB1-GFP domain constructs upon protein VII-HA expression; assay type: cell-based; conditions: A549 cells, 2 days after transfection
Method: (§1) Cells were grown on glass coverslips in 24-well plates and either infected or induced with doxycycline (0.2 μg/mL). Cells were harvested for immunofluorescence at the indicated time points, washed in phosphate-buffered saline (PBS), fixed in 4% paraformaldehyde for 15 minutes and post-fixed with 100% ice-cold methanol for 5 minutes. Coverslips were then blocked and stained as described (Lilley et al. (2011) PLoS Pathog., 7:e1002084) and mounted using ProLong Gold Antifade Reagent (Life Technologies). Immunofluorescence was visualized using a Zeiss LSM Confocal microscope and ZEN 2011 software. Images were processed using ImageJ and assembled with Adobe CS6. All scale bars show in the Figures are 10 μm unless otherwise stated.
FIG. 8A provides a schematic of the different GFP constructs expressing distinct HMGB1 domains. […] Immunofluorescence of the HMGB1-GFP constructs 2 days after transfection of A549s cells under control conditions or upon expression of Ad5 protein VII-HA is shown in FIG. 8B. […] Only full-length HMGB1 and the HMGB1 A box are relocalized upon expression of protein VII. […] Next we tested the immobilization of this construct in chromatin upon protein VII expression.

[2] = biological target: T2, HMGB1 full-length and domains (Homo sapiens, UniProt P09429); experiment: In vitro GST pull down of recombinant GST-HMGB1 constructs with protein VII; assay type: binding
T2 construct: recombinant GST constructs encoding full-length HMGB1 or distinct HMGB1 domains
T2 sequence (P09429 1-215): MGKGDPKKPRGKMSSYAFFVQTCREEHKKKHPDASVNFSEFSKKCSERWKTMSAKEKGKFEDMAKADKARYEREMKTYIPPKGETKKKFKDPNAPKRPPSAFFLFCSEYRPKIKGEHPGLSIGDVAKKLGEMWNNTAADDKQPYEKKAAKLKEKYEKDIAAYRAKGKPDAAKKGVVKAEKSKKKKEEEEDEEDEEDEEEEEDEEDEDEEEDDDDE

[3] = tested on: HMGB1 full-length and domains; experiment: as above; assay type: binding
cellular chromatin = experiment: Chromatin appearance in inducible cell lines (immunofluorescence, DAPI); assay type: cell-based; conditions: inducible expression
Description: Primary small airway epithelial cells (SAECs), U2OS, HeLa, 293, THP-1 and A549 cells were obtained from the American Tissue Culture Collection (ATCC) and grown according to the provider's instructions. Acceptor cells for generation of inducible cell lines were used as reported (Khandelia et al. (2011) Proc. Natl. Acad. Sci., 108:12799-12804). Protein VII, preVII and V were cloned from genomic DNA isolated from HeLa cells infected with adenovirus type 5 and inserted into the inducible plasmid cassette with a C-terminal HA tag using restriction enzymes BsrGI and AgeI. Positive clones were selected in DH5a cells, sequenced, and transfected into A549, U2OS or HeLa acceptor cells along with plasmid expressing the Cre recombinase. Recombined clones were selected by puromycin resistance (1 μg/mL) and induced with doxycycline (0.2 μg/mL) to express the desired protein. Protein expression was verified by immunofluorescence and western blot. All figures shown are after 4 days of induction unless otherwise stated. Protein VII and preVII were also verified by HPLC purification and mass spectrometry analysis. Point mutations were generated by gene synthesis from Genewiz.
Cells were grown on glass coverslips in 24-well plates and either infected or induced with doxycycline (0.2 μg/mL). […]

HMGB1 = biological target: T3, HMGB1 (Homo sapiens, UniProt P09429); experiment: Immunofluorescence of HMGB1 localization in A549 cells; assay type: cell-based; parameters: endogenous in cells; host or cells: A549
T3 sequence (P09429 1-215): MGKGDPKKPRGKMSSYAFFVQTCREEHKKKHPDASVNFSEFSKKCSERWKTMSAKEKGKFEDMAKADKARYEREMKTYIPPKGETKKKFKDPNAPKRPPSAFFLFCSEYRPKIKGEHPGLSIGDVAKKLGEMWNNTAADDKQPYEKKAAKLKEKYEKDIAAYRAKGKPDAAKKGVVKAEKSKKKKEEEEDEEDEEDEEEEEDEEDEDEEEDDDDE
Method: as §1

B1: protein VII: mature protein VII of human adenovirus type 5 (SEQ ID NO:1), expressed in cells, mostly with C-terminal HA tag (protein)
chain: AKKRSDQHPVRVRGHYRAPWGAHKRGRTGRTTVDDAIDAVVEEARNYTPTPPPVSTVDAAIQTVVRGARRYAKMKRRRRRVARRHRRRPGTAAQRAAAALLNRARRTGRRAAMRAARRLAAGIVTVPPRSRRRAAAAAAAAISAMTQGRRGNVYWVRDSVSGLRVPVRTRPPRN
modifications: C-terminal HA tag; Human adenovirus 5
Chromatin association of HMGB2 (fractionated nuclei) (HMGB2): Increased chromatin association
Relocalization of HMGB1 A box [1]: relocalizes
Pull-down by full-length HMGB1 construct in vitro [2]: able to also pull-down protein VII
Binding to HMGB1 acidic tail (C-terminus) in vitro [3]: binds
Effect on chromatin appearance (cellular chromatin): altered nuclear DNA into a punctate appearance
Relocalization of HMGB1 (immunofluorescence) (HMGB1): relocalization of HMGB1

From patent US20190276499A1, “Protein VII Fragments and Methods of Use Thereof for the Treatment of Inflammatory Disorders” (priority 2016, published 2019)
